From the supplement of paper PMC10567573

B1: ANKRD40 (parent)
chain: YQELLRVCCCELGVNPDQVEKIRK
B2: SETD8 (parent)
chain: KKAQGKTQQNRKLTDFYPVRRSSR

Variants of: B1
Assay: protein stability index of a GFP-peptide fusion (GPS, HEK-293T) (PSI 1-6); higher = more stable
Settings: c terminus: a fixed tail appended
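Note: lentivirally expressed fusions sorted by FACS into six bins by GFP to DsRed ratio, PSI derived from sequencing read proportions per bin multiplied by bin number.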

Q: With YQEKLRVCCCELGVNPDQVEKIRK as the variant, how does the protein stability index read?
A: The protein stability index was 2.94.

Q: Which protein stability index does the source give for YQEMLRVCCCELGVNPDQVEKIRK here?
A: The protein stability index was 1.82.

Q: For YQEALRVCCCELGVNPDQVEKIRK, which protein stability index is on record?
A: The protein stability index was 2.63.

Q: With YQEELRVCCCELGVNPDQVEKIRK as the variant, how does the protein stability index read?
A: Its protein stability index is 3.05.

Q: Which protein stability index does the source give for YQEDLRVCCCELGVNPDQVEKIRK here?
A: The protein stability index was 3.98.

Q: With YQESLRVCCCELGVNPDQVEKIRK as the variant, how does the protein stability index read?
A: The protein stability index was 2.27.

Q: With YQERLRVCCCELGVNPDQVEKIRK as the variant, how does the protein stability index read?
A: The protein stability index was 1.79.

Q: Which protein stability index does the source give for YQEQLRVCCCELGVNPDQVEKIRK here?
A: Its protein stability index is 2.42.

Q: Which protein stability index does the source give for YQEHLRVCCCELGVNPDQVEKIRK here?
A: Its protein stability index is 3.

Q: For YQEILRVCCCELGVNPDQVEKIRK, which protein stability index is on record?
A: Its protein stability index is 2.58.

Q: Which protein stability index does the source give for YQENLRVCCCELGVNPDQVEKIRK here?
A: The protein stability index was 2.55.

Q: With YQEYLRVCCCELGVNPDQVEKIRK as the variant, how does the protein stability index read?
A: The protein stability index was 2.38.

Q: For YQECLRVCCCELGVNPDQVEKIRK, which protein stability index is on record?
A: The protein stability index was 2.15.

Q: For YQETLRVCCCELGVNPDQVEKIRK, which protein stability index is on record?
A: Its protein stability index is 2.53.

Q: With YQELLRVACCELGVNPDQVEKIRK as the variant, how does the protein stability index read?
A: Its protein stability index is 3.16.

Variants of: B2
Assay: as above
Settings: c terminus: a fixed tail appended

Q: With KKAQGKTQQNRKLTDFYPVCRSSR as the variant, how does the protein stability index read?
A: Its protein stability index is 2.78.

Q: With KKAQGKTQQNRKLTDFYPVKRSSR as the variant, how does the protein stability index read?
A: The protein stability index was 1.93.

Q: For KKAQGKTQQNRKLTDFYPVSRSSR, which protein stability index is on record?
A: Its protein stability index is 2.

Q: Which protein stability index does the source give for KKAQGKTQQNRKLTDFYPVLRSSR here?
A: Its protein stability index is 2.32.

Q: For KKAQGKTQQNRKLTDFYPVWRSSR, which protein stability index is on record?
A: The protein stability index was 3.22.

Q: With KKAQGKTQQNRKLTDFYPVPRSSR as the variant, how does the protein stability index read?
A: Its protein stability index is 4.13.

Q: With KKAQGKTQQNRKLTDFYPVGRSSR as the variant, how does the protein stability index read?
A: The protein stability index was 3.43.

Q: Which protein stability index does the source give for KKAQGKTQQNRKLTDFYPVYRSSR here?
A: Its protein stability index is 2.25.

Q: With KKAQGKTQQNRKLTDFYPVNRSSR as the variant, how does the protein stability index read?
A: Its protein stability index is 2.83.

Q: Which protein stability index does the source give for KKAQGKTQQNRKLTDFYPVFRSSR here?
A: Its protein stability index is 2.63.

Q: For KKAQGKTQQNRKLTDFYPVDRSSR, which protein stability index is on record?
A: The protein stability index was 3.66.

Q: For KKAQGKTQQNRKLTDFYPVTRSSR, which protein stability index is on record?
A: The protein stability index was 1.92.

Q: For KKAQGKTQQNRKLTDFYPVMRSSR, which protein stability index is on record?
A: The protein stability index was 2.94.

Q: With KKAQGKTQQNRKLTDFYPVQRSSR as the variant, how does the protein stability index read?
A: Its protein stability index is 3.48.

Q: With KKAQGKTQQNRKLTDFYPVVRSSR as the variant, how does the protein stability index read?
A: Its protein stability index is 3.67.

Q: Which protein stability index does the source give for KKAQGKTQQNRKLTDFYPVRRSDR here?
A: The protein stability index was 3.09.

Q: For KKAQGKTQQNRKLTDFYPVRRSFR, which protein stability index is on record?
A: Its protein stability index is 3.54.

Q: For KKAQGKTQQNRKLTDFYPVRRSER, which protein stability index is on record?
A: The protein stability index was 3.5.

Q: Which protein stability index does the source give for KKAQGKTQQNRKLTDFYPVRRSTR here?
A: The protein stability index was 2.23.

Q: Which protein stability index does the source give for KKAQGKTQQNRKLTDFYPVRRSKR here?
A: Its protein stability index is 4.11.

Q: Which protein stability index does the source give for KKAQGKTQQNRKLTDFYPVRRSNR here?
A: Its protein stability index is 2.66.

Q: For KKAQGKTQQNRKLTDFYPVRRSPR, which protein stability index is on record?
A: The protein stability index was 2.65.

Q: For KKAQGKTQQNRKLTDFYPVRRSHR, which protein stability index is on record?
A: The protein stability index was 2.7.

Q: With KKAQGKTQQNRKLTDFYPVRRSRR as the variant, how does the protein stability index read?
A: Its protein stability index is 2.16.

Q: Which protein stability index does the source give for KKAQGKTQQNRKLTDFYPVRRSLR here?
A: Its protein stability index is 4.44.

Q: With KKAQGKTQQNRKLTDFYPVRRSYR as the variant, how does the protein stability index read?
A: The protein stability index was 3.04.

Q: For KKAQGKTQQNRKLTDFYPVRRSMR, which protein stability index is on record?
A: Its protein stability index is 3.18.

Q: With KKAQGKTQQNRKLTDFYPVRRSGR as the variant, how does the protein stability index read?
A: The protein stability index was 1.83.

Q: Which protein stability index does the source give for KKAQGKTQQNRKLTDFYPVRRSAR here?
A: Its protein stability index is 3.62.

Q: With KKAQGKTQQNRKLTDFYPVRRTSR as the variant, how does the protein stability index read?
A: The protein stability index was 2.63.

Q: For KKAQGKTQQNRKLTDFYPVRRLSR, which protein stability index is on record?
A: The protein stability index was 2.02.

Q: For KKAQGKTQQNRKLTDFYPVRRMSR, which protein stability index is on record?
A: Its protein stability index is 3.38.

Q: With KKAQGKTQQNRKLTDFYPVRRHSR as the variant, how does the protein stability index read?
A: The protein stability index was 1.38.

Q: With KKAQGKTQQNRKLTDFYPVRRYSR as the variant, how does the protein stability index read?
A: Its protein stability index is 3.06.

Q: Which protein stability index does the source give for KKAQGKTQQNRKLTDFYPVRRPSR here?
A: The protein stability index was 2.89.

Q: With KKAQGKTQQNRKLTDFYPVRRQSR as the variant, how does the protein stability index read?
A: Its protein stability index is 2.37.

Q: With KKAQGKTQQNRKLTDFYPVRRGSR as the variant, how does the protein stability index read?
A: Its protein stability index is 2.42.

Q: With KKAQGKTQQNRKLTDFYPVRRASR as the variant, how does the protein stability index read?
A: The protein stability index was 2.92.

Q: For KKAQGKTQQNRKLTDFYPVRPSSR, which protein stability index is on record?
A: Its protein stability index is 2.7.

Q: Which protein stability index does the source give for KKAQGKTQQNRKLTDFYPVRCSSR here?
A: The protein stability index was 2.23.

Q: With KKAQGKTQQNRKLTDFYPVRKSSR as the variant, how does the protein stability index read?
A: The protein stability index was 2.66.

Q: With KKAQGKTQQNRKLTDFYPVRGSSR as the variant, how does the protein stability index read?
A: Its protein stability index is 2.9.

Q: For KKAQGKTQQNRKLTDFYPVRMSSR, which protein stability index is on record?
A: Its protein stability index is 3.63.

Q: Which protein stability index does the source give for KKAQGKTQQNRKLTDFYPVRTSSR here?
A: The protein stability index was 2.23.

Q: For KKAQGKTQQNRKLTDFYPVRVSSR, which protein stability index is on record?
A: The protein stability index was 3.

Q: With KKAQGKTQQNRKLTDFYPVRDSSR as the variant, how does the protein stability index read?
A: Its protein stability index is 3.23.

Q: For KKAQGKTQQNRKLTDFYPVRESSR, which protein stability index is on record?
A: The protein stability index was 3.17.

Q: For KKAQGKTQQNRKLTDFYPVRASSR, which protein stability index is on record?
A: The protein stability index was 2.52.

Q: Which protein stability index does the source give for KKAQGKTQQNRKLTDFYPVRWSSR here?
A: The protein stability index was 2.57.

Q: For KKAQGKTQQNRKLTDFYPVRNSSR, which protein stability index is on record?
A: Its protein stability index is 3.2.

Q: For KKAQGKTQQNRKLTDFYPVRISSR, which protein stability index is on record?
A: The protein stability index was 3.33.

Q: For KKAQGKTQQNRKLTDFYPVRSSSR, which protein stability index is on record?
A: The protein stability index was 3.25.

Q: With KKAQGKTQQNRKLTDFYPKRRSSR as the variant, how does the protein stability index read?
A: Its protein stability index is 2.02.

Q: For KKAQGKTQQNRKLTDFYPRRRSSR, which protein stability index is on record?
A: Its protein stability index is 4.2.

Q: For KKAQGKTQQNRKLTDFYPERRSSR, which protein stability index is on record?
A: Its protein stability index is 3.84.

Q: With KKAQGKTQQNRKLTDFYPHRRSSR as the variant, how does the protein stability index read?
A: The protein stability index was 3.63.

Q: For KKAQGKTQQNRKLTDFYPMRRSSR, which protein stability index is on record?
A: The protein stability index was 3.01.

Q: With KKAQGKTQQNRKLTDFYPPRRSSR as the variant, how does the protein stability index read?
A: The protein stability index was 2.88.

Q: For KKAQGKTQQNRKLTDFYPGRRSSR, which protein stability index is on record?
A: The protein stability index was 4.08.

Q: With KKAQGKTQQNRKLTDFYPTRRSSR as the variant, how does the protein stability index read?
A: Its protein stability index is 2.72.

Q: With KKAQGKTQQNRKLTDFYPFRRSSR as the variant, how does the protein stability index read?
A: The protein stability index was 2.42.

Q: Which protein stability index does the source give for KKAQGKTQQNRKLTDFYPIRRSSR here?
A: The protein stability index was 3.13.

Q: Which protein stability index does the source give for KKAQGKTQQNRKLTDFYPNRRSSR here?
A: The protein stability index was 3.29.

Q: For KKAQGKTQQNRKLTDFYPWRRSSR, which protein stability index is on record?
A: The protein stability index was 2.09.

Q: With KKAQGKTQQNRKLTDFYPDRRSSR as the variant, how does the protein stability index read?
A: The protein stability index was 3.32.

Q: Which protein stability index does the source give for KKAQGKTQQNRKLTDFYPQRRSSR here?
A: The protein stability index was 3.49.

Q: With KKAQGKTQQNRKLTDFYPLRRSSR as the variant, how does the protein stability index read?
A: The protein stability index was 3.11.

Q: For KKAQGKTQQNRKLTDFYPYRRSSR, which protein stability index is on record?
A: The protein stability index was 3.35.

Q: Which protein stability index does the source give for KKAQGKTQQNRKLTDFYPVRRSSL here?
A: The protein stability index was 2.08.

Q: Which protein stability index does the source give for KKAQGKTQQNRKLTDFYPVRRSSQ here?
A: The protein stability index was 1.06.

Q: Which protein stability index does the source give for KKAQGKTQQNRKLTDFYPVRRSSM here?
A: Its protein stability index is 3.16.

Q: For KKAQGKTQQNRKLTDFYPVRRSSN, which protein stability index is on record?
A: The protein stability index was 2.76.

Q: With KKAQGKTQQNRKLTDFYPVRRSSH as the variant, how does the protein stability index read?
A: The protein stability index was 2.54.

Q: For KKAQGKTQQNRKLTDFYPVRRSSC, which protein stability index is on record?
A: The protein stability index was 3.61.

Q: With KKAQGKTQQNRKLTDFYPVRRSSS as the variant, how does the protein stability index read?
A: The protein stability index was 3.83.

Q: With KKAQGKTQQNRKLTDFYPVRRSSA as the variant, how does the protein stability index read?
A: The protein stability index was 2.12.

Q: Which protein stability index does the source give for KKAQGKTQQNRKLTDFYPVRRSSP here?
A: Its protein stability index is 3.87.

Q: With KKAQGKTQQNRKLTDFYPVRRSSF as the variant, how does the protein stability index read?
A: Its protein stability index is 2.57.

Q: For KKAQGKTQQNRKLTDFYPVRRSST, which protein stability index is on record?
A: The protein stability index was 2.75.
